One test has as its system human T-ALL lymphoblasts. Kind of test: Cytokine/growth factor subtraction and IGF1R blockade, resazurin-reduction cell growth assay. The test is classed as cell-based. As to conditions: for importance of the supplemental cytokine for T-ALL growth: SCF, IGF-1, IL-2, IL-7 added alone or in combination, FIG. 3. How it is done:
A resazurin-reduction cell growth assay was performed on (A-B) primary and (C) xenograft-expanded T-ALL. Cells were cultured and passaged as described in FIG. 1. Cytokines and growth factors were subtracted out of the complete media and cells were assayed for growth using a resazurin reduction assay. […] Significance: * p<0.05, ** p<0.01, and *** p<0.001.
Cell Titer Blue (Promega) was added to a co-culture, 5 μl/well for a 12-well plate and 1 μl/well for a 96-well plate, and allowed to incubate for 2-6 hours depending on the number and type of cells present in the well. Cultures were then analyzed using a Tecan GENios Flourometric plate reader. The plate reader was set to read from the bottom at 535 nm excitation and 590 nm emission wavelengths, at optimal gain with an integration time of 80 μs and a lag time of 0 μs. The plate was orbitally shaken in the machine for 5 sec prior to reading.
Studies were also conducted with human T-ALL primary cells (FIGS. 3A-3B) and human T-ALL cells that were previously expanded in immunodeficient NSG mice (FIG. 3C).

The next test has as its target IGF1R (Homo sapiens, UniProt P08069). As to conditions: read-out: Kd of insulin for IGF1R; cited from earlier work.

The text below walks through data of patent US9683217B2, “In vitro culture conditions for T-cell acute lymphoblastic leukemia/lymphoma” (THE UNIVERSITY OF MIAMI, priority 2013, dated 2017).

In the case of “IGF-1: ligand for a tyrosine kinase transmembrane receptor (CD221); recombinant supplement”, in the test on human T-ALL lymphoblasts, the “importance of the supplemental cytokine for T-ALL growth” value was “may be dispensable”.
One may read the Kd as the constant that tells how readily two partners part at equilibrium. On to “insulin: ligand for a tyrosine kinase transmembrane receptor (CD220); component of the basal medium”, for which, in the test with IGF1R, the Kd was 200 to 400 nM.

B1: CP-751,871: an IGF-1 receptor (IGF1R) blocking antibody, specific for human IGF1R (antibody, chains of the INN, looked up)
heavy: EVQLLESGGGLVQPGGSLRLSCTASGFTFSSYAMNWVRQAPGKGLEWVSAISGSGGTTFYADSVKGRFTISRDNSRTTLYLQMNSLRAEDTAVYYCAKDLGWSDSYYYYYGMDVWGQGTTVTVSSASTKGPSVFPLAPCSRSTSESTAALGCLVKDYFPEPVTVSWNSGALTSGVHTFPAVLQSSGLYSLSSVVTVPSSNFGTQTYTCNVDHKPSNTKVDKTVERKCCVECPPCPAPPVAGPSVFLFPPKPKDTLMISRTPEVTCVVVDVSHEDPEVQFNWYVDGVEVHNAKTKPREEQFNSTFRVVSVLTVVHQDWLNGKEYKCKVSNKGLPAPIEKTISKTKGQPREPQVYTLPPSREEMTKNQVSLTCLVKGFYPSDIAVEWESNGQPENNYKTTPPMLDSDGSFFLYSKLTVDKSRWQQGNVFSCSVMHEALHNHYTQKSLSLSPG
light: DIQMTQFPSSLSASVGDRVTITCRASQGIRNDLGWYQQKPGKAPKRLIYAASRLHRGVPSRFSGSGSGTEFTLTISSLQPEDFATYYCLQHNSYPCSFGQGTKLEIKRTVAAPSVFIFPPSDEQLKSGTASVVCLLNNFYPREAKVQWKVDNALQSGNSQESVTEQDSKDSTYSLSSTLTLSKADYEKHKVYACEVTHQGLSSPVTKSFNRGEC
In the case of B1, in the test with human T-ALL lymphoblasts (T-ALL on mouse MS5-DL1 feeders), the “effect of IGF1R blocking antibody on cell growth” value was “significantly impaired cell growth”.

B2: IL-7: ligand for the IL-7 receptor; recombinant cytokine supplement (protein, UniProt P13232 26-177, looked up)
Interleukin-7: DCDIEGKDGKQYESVLMVSIDQLLDSMKEIGSNCLNNEFNFFKRHICDANKEGMFLFRAARKLRQFLKMNSTGDFDLHLLKVSEGTTILLNCTGQVKGRKPAALGEAQPTKSLEENKSLKEQKKLNDLCFLKRLLQEIKTCWNKILMGTKEH
B2: the “importance of the supplemental cytokine for T-ALL growth” value with human T-ALL lymphoblasts was “the most important factor”.
